Laboratory results published in patent US20240024426A1, “HYPOTENSIVE PHARMACEUTICAL COMPOSITION COMPRISING TRIPLE ACTIVATOR HAVING ACTIVITY FOR ALL OF GLUCAGON, GLP-1, AND GIP RECEPTORS” (HANMI PHARM. CO., LTD., priority 2020, published 2024).
Bridges are numbered along the chain shown (N, C = ends). Where no end group is shown, it is not given here. [ ]: non-standard residue; d: D form. The star is where a group is joined. Acetyl(2-(4-imidazolyl)) = O=C(Cc1c[nH]cn1)*; Aib = CC(C)(N)C(=O)O

T1: human GIP receptor (human, UniProt P48546 22-466)
T1 sequence (looked up): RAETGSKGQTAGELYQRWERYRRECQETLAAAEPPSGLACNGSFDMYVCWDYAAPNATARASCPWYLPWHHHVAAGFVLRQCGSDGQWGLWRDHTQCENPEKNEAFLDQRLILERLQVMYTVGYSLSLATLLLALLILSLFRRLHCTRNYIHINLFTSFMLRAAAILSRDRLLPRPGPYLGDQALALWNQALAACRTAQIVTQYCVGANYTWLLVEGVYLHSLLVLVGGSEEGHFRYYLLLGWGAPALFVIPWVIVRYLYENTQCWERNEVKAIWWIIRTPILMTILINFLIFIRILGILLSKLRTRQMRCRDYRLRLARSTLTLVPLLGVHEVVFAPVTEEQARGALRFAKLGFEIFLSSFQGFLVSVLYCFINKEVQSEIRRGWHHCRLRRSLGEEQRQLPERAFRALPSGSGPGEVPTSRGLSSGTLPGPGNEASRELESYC


What was measured:
Experiment in all cases: cell-based or functional assay
human GCG receptor = human GCG receptor (human, UniProt P47871 26-477)
human GLP-1 receptor = human GLP-1 receptor (human, UniProt P43220 24-463)
human GIP receptor = biological target: T1, human GIP receptor

Sequence of human GCG receptor (P47871 26-477): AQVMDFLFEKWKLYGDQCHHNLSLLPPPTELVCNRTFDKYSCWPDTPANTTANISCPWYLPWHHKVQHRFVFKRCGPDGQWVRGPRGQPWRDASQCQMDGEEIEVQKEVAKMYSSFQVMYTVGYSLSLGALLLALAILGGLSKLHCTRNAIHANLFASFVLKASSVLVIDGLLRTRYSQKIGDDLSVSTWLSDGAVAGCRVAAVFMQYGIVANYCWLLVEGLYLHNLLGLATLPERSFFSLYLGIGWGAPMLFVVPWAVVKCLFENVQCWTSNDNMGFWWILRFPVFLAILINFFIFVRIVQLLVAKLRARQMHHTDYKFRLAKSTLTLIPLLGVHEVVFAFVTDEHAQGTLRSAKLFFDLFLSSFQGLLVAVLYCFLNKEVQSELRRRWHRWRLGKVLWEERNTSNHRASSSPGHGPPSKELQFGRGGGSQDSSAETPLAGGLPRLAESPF

Binder | In vitro activity compared with native peptide (%) vs. Glucagon (human GCG receptor) | In vitro activity compared with native peptide (%) vs. GLP-1 (human GLP-1 receptor) | In vitro activity compared with native peptide (%) vs. GIP (human GIP receptor)
H[Aib]QGTFTSDYSKYLDGQHAQCFVAWLLAGGGPSSGAPPPS [Triple agonist of SEQ ID NO: 39] | 0.53% | 13.9% | < 0.1%
Y[Aib]QGTFTSDYSKYLDEKRAKEFVQWLLDHHCSSGQPPPS (bridge 16-20) [Triple agonist of SEQ ID NO: 43] | 88.4% | 12.6% | 3.7%
Y[Aib]QGTFTSDYSKYLDEKRAKEFVQWLLDHHPSSGQPPPSC (bridge 16-20) [Triple agonist of SEQ ID NO: 42] | 206% | 33.9% | 7.8%
H[Aib]QGTFTSDVSSYLLGQQQKEFIAWLVKGC [Triple agonist of SEQ ID NO: 4] | < 0.1% | 8.5% | < 0.1%
H[Aib]QGTFTSDYSKYLDECRQKEFVQWLLNGGPSSGAPPPSG (bridge 16-20) [Triple agonist of SEQ ID NO: 37] | 6.21% | 236% | 2.2%
H[Aib]QGTFTSDYSKYLDEKRQKEFVNWLLAQKC (bridge 16-20) [Triple agonist of SEQ ID NO: 34] | 0.92% | 19.1% | 0.6%
H[Aib]QGTFTSDKSKYLDERACQDFVQWLLDGGPSSGAPPPS [Triple agonist of SEQ ID NO: 40] | < 0.1% | 75.2% | < 0.1%
HGQGTFTSDCSKQLDGQAAQEFVAWLLAGGPSSGAPPPS [Triple agonist of SEQ ID NO: 44] | < 0.1% | 1.3% | < 0.1%
H[Aib]QGTFTSDYSKYLCEKRQKEFVQWLLNGGPSSGAPPPSG (bridge 16-20) [Triple agonist of SEQ ID NO: 36] | 0.39% | 37.4% | 0.2%
H[Aib]QGTFTSDYSIAMDEIHQKDFVNWLLNTKC (bridge 16-20) [Triple agonist of SEQ ID NO: 35] | < 0.1% | 7.5% | 1.3%
H[Aib]QGTFTSDKSKYLDECAAQDFVQWLLDGGPSSGAPPPS [Triple agonist of SEQ ID NO: 41] | < 0.1% | 34.3% | < 0.1%
[Acetyl(2-(4-imidazolyl))][Aib]QGTFTSDKSSYLDERAAQDFVQWLLDGGPSSGAPPPSS [Triple agonist of SEQ ID NO: 38] |  | 2.3% | 
H[Aib]QGTFTSDVSSYLLGQQQKEFIAWLVKGGGPSSGAPPPSC [Triple agonist of SEQ ID NO: 5] | < 0.1% | 42.1% | < 0.1%
